Laboratory results: patent US6696546B1, “Peptide that kills growing but not stationary cells” (The Trustees of Columbia University in the City of New York, priority 2000, dated 2004)

What was measured:
cyclin A/cdk2 = cyclin A/cdk2 (Homo sapiens, UniProt P20248); assay: in vitro kinase assay, pRB phosphorylation by cyclin A/cdk2; type: biochemical; settings: peptide 9 μM and 18 μM; for pRB phosphorylation by cyclin A/cdk2: γ-32P ATP, SDS-PAGE, autoradiography
MEFs [1] = assay: DNA content by propidium iodide staining and FACS, mouse embryo fibroblasts; type: cell-based; settings: sub-confluent MEFs; for percentage of cells with S-phase DNA content / percentage of cells with sub-G1 DNA content: one hour, SEQ ID NO:3 1.87-30 μM, controls 30 μM
Experimental: (A) PAP's CRM stimulates both the percentage of cells with sub-G1 DNA content and S-phase DNA content in a dose dependent manner. DNA content as measured by FACS analysis is graphically represented.
(B) PAP's CRM stimulates cell death over time. The percentage of cells with a sub-G1 DNA content with or without treatment with 30 μM of PAP's CRM (SEQ ID NO: 3) for varying lengths of time is shown.
(C) The percents of cells with G0/G1 (in black), S (in gray), and G2/M (in white) DNA contents of the same population of cells in (B) are depicted.
Panel A depicts the MEF's response to a concentration curve of SEQ ID NO:3. […] After a one hour incubation, cells were harvested for propidium iodine staining and subsequent FACS analysis.
To further study the MEF's reactions to the membrane permeable peptide, SEQ ID NO:3, and to determine if the increase in S-phase depicts a stimulation or inhibition of proliferation, treatment with one concentration was followed at varying time points. Sub-confluent MEFs were treated with 30 μM SEQ ID NO:3, harvested at different time points, and their DNA content was analyzed by propidium iodide staining and subsequent FACS analysis. FIG. 10 panel B depicts the percentage of death initiated over time, as measured by sub-G1 DNA content. 30% of the cells die after the first hour of treatment, 50% by the forth. […], depicts the cell cycle analysis over time of those cells that are not dying. Here, the stimulation of the cell cycle over time by SEQ ID NO:3, is clearly seen, ruling out an inhibitory effect. In the first hour, 25% of the cycling cells are induced into S-phase, and in time, into G2/M and back into G1.
(§1) After treatment with or without cell membrane permeable peptides (Synpep), cells were trypsinized, centrifuged and washed in PBS. Cell were than fixed with methanol and kept at −20° C. for 40 min or overnight. After washing and equilibration in PBS, the cell pellet was resuspended in 1 ml of staining solution containing 50 μg of RNase A and 0.5 μg of propidium iodide per ml in PBS, and kept at room temperature for over 30 minutes. The cells were then applied to the fluorescence-activated cell sorter (FACSCalibur; Becton Dickson). The FACSCalibur program was used to sort and count the cells, and the Modfit program was used to calculate the percentage of cells in the G0/G1, S, and G2/M phases.

[2] = target: cyclin D1-cdk2 association (Homo sapiens, UniProt P24385); assay: GST-cyclin D1 binding assay with cdk2; settings: peptide 9 μM and 20 μM; Western blot
HaTCat cells = assay: DNA content by propidium iodide staining and FACS, HaTCat cells; type: cell-based, human; settings: for S-phase population of cells: confluent (resting) HaTCat cells
From the text: A graphical representation of DNA content of cells as collected by propidium iodide staining and subsequent FACS analysis. G0/G1, S, and G2M phases are depicted of cells either treated or not treated with cell permeable peptides. The percentage of untreated cell in a given phase are in white, PAP's CRM in (SEQ ID NO: 3) black, p21's in gray (SEQ ID NO: 5), scrambled in horizontal stripes (SEQ ID NO: 4), internalization sequence alone in vertical stripes (SEQ ID NO: 2).
(A) PAP's CRM (SEQ ID NO: 3) kills growing HaTCats, but stimulates S-phase entry of stationary HaTCats. The bar graph depicts the fold induction over non-treated cells of sub-G1 DNA content and S-phase DNA content of four different populations of cells. The percentage of cells found S-phase of each population is noted below the bar graph. Sub-G1 DNA content and S-phase DNA content are depicted of cells either treated or not treated with cell permeable peptides. The percentages of untreated cell in a given phase are in white, PAP's CRM (SEQ ID NO: 3) in black, p21's in gray (SEQ ID NO: 5), and scrambled in stripes (SEQ ID NO: 4).
Panel B of FIG. 7 is a graphical representation of DNA content of cells, derived from propidium iodide staining and subsequent the fluorescence-activated cell sorter (FACS) analysis. In this experiment, an immortalized human karitinocyte cell line (HaTCat) was treated with the cell-membrane permeable form of PAP's CRM (SEQ ID NO:3). […] This is not observed with the scrambled sequence (SEQ ID NO:4), nor the p21 (SEQ ID NO:5) nor the penetratin sequence alone (SEQ ID NO:2).
FIG. 8 is a graphical representation of the fold induction, over untreated control cells, of sub-G1 DNA content and S-phase DNA content of four different populations of HaTCat cells. These populations vary in their proliferation rates due to their confluency, starting with the least confluent population of cells, with 30% in S-phase, to the most confluent population, with only 3.5% in S-phase. Cycling cells, with over 30% of cells in S-phase, die when treated with the SEQ ID NO:3.
as §1

pRB knock out MEFs = assay: DNA content by FACS, pRB knock out mouse embryo fibroblasts; type: cell-based
From the text: (A) A graphical representation of the fold induction of sub-G1 DNA content in cells with or without pRB, as indicated below the graph. […] (B) A graphical representation of the fold induction of S-phase DNA content in the same cells.
The ability of SEQ ID NO:3 to stimulate both death and proliferation in mouse embryo fibroblasts, allows us to test the model, wherein pRB inhibits cell death after treatment with SEQ ID NO:3, thereby allowing for stimulation of proliferation (FIG. 9). In the absence of pRB, cells would no longer have the anti-apoptotic activity of pRB, and treatment with SEQ ID NO:3 would lead only to cell death. In the experiment shown in FIG. 11, two genetically identical populations of cells were used, except that one was pRB minus, by way of knock out technology. The fold inductions of both sub-G1 and S-phase are represented in FIG. 11. Upon treatment with SEQ ID NO:3, here done in duplicate, the cells with pRB show at least a two-fold induction of S-phase after one hour of treatment. The cells without pRB show none, but therefore a dramatic (up to 50 fold) induction of death.
After treatment with or without cell membrane permeable peptides (Synpep), cells were trypsinized, centrifuged and washed in PBS. […] The cells were then applied to the fluorescence-activated cell sorter (FACSCalibur; Becton Dickson). […]

Wi38 cells = assay: DNA content by propidium iodide staining and FACS, Wi38 cells; type: cell-based, human
MEFs [3] = assay: DNA content by propidium iodide staining and FACS, mouse embryo fibroblasts; type: cell-based; settings: MEFs with pRB, after one hour of treatment, duplicate
cyclin B1/cdc2 = cyclin B1/cdc2 (Homo sapiens, UniProt P14635); assay: in vitro kinase assay, pRB phosphorylation by cyclin B1/cdc2; type: biochemical; settings: peptide 18 μM
[4] = target: PAP-cyclin B1 interaction (Homo sapiens, UniProt P14635); assay: GST-cyclin B1 pull-down assay of PAP binding
Sequence of PAP-cyclin B1 interaction (P14635 whole entry): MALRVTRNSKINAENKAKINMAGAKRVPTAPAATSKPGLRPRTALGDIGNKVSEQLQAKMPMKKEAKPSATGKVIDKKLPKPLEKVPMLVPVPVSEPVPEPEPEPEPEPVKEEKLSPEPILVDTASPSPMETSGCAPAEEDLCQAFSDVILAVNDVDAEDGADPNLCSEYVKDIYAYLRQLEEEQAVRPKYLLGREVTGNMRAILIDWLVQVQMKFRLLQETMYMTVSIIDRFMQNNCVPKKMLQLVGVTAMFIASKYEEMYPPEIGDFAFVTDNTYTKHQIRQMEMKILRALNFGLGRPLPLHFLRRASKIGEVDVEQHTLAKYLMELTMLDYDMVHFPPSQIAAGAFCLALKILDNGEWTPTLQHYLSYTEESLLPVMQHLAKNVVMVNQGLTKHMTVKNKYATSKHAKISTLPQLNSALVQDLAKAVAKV

Sequence of cyclin B1/cdc2 (P14635 whole entry): as above
Sequence of cyclin B1/cdc2 (P06493 whole entry partner): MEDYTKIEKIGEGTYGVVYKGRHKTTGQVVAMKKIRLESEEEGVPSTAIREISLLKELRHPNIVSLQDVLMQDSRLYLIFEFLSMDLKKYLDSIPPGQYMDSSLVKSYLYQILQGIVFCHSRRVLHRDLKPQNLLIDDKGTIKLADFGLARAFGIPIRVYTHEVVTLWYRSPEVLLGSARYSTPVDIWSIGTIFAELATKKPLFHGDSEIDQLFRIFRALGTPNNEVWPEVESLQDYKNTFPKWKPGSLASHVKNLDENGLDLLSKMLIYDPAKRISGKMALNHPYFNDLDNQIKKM

“LRSGIKVI (scrambled sequence) [SEQ ID NO:4, fused to penetratin in cell tests, reference compound]” was tested, and the “pRB phosphorylation by cyclin A/cdk2” value (cyclin A/cdk2) was “no effect”, the “percentage of cells with S-phase DNA content” value (MEFs [1]) was “No effects” and the “percentage of cells with sub-G1 DNA content” value (MEFs [1]) was “No effects”. The “presence of cdk2 in the eluate of GST-cyclin D1” value [2] was “without significant effect” and the “S-phase population of cells” value (HaTCat cells) was “not observed”.

With “SEQ ID NO:3: 8-mer peptide (SEQ ID NO:1) fused to penetratin (SEQ ID NO:2); cell-membrane permeable form of PAP's CRM (RQIKIWFQNRRMKWKKSKIRILVG; poly(A) polymerase cyclin recognition motif fued to Drosohilia Antennapedia homeodomain residues)” the “fold induction of death (sub-G1 DNA content)” value (pRB knock out MEFs) was “up to 50 fold”, the “fold induction of S-phase” value (pRB knock out MEFs; MEFs without pRB, after one hour of treatment) was “none” and the “cells that die (sub-G1 DNA content)” value (MEFs [1]; 30 μM, after the first hour) was 30%. The “cells that die (sub-G1 DNA content)” value (MEFs [1]; 30 μM, by the fourth hour) was 50%, the “cycling cells induced into S-phase” value (MEFs [1]; 30 μM, in the first hour) was 25% and the “percentage of cells with S-phase DNA content” value (MEFs [1]) was “dramatically increased”. For the same substance, the “percentage of cells with sub-G1 DNA content” value (MEFs [1]) was “dramatically increased”, the “Wi38 death (sub-G1 DNA content)” value (Wi38 cells; populations of varying confluency) was “able to induce Wi38 death in a growth dependent manner” and the “decrease in fold induction of sub G1 DNA content” value (Wi38 cells; with the increase in confluency and decrease in growth) was 30 fold. For the same substance, the “fold induction of S-phase” value (MEFs [3]) was “two”, the “S-phase population of cells” value (HaTCat cells) was “dramatic increase” and the “cell death (sub-G1 DNA content)” value (HaTCat cells; cycling HaTCat cells, over 30% of cells in S-phase) was “die”. The “cell death (sub-G1 DNA content)” value (HaTCat cells; most confluent HaTCat population, 3.5% in S-phase) was “cell death is in fact inhibited”.

For “SKIRILVG (poly(A) polymerase cyclin recognition motif) [SEQ ID NO:1, synthetic 8-mer peptide spanning PAP's cyclin recognition motif (CRM)]”, the “cyclin B1 autophosphorylation” value (cyclin B1/cdc2) was “not affected”, the “phosphorylation of pRB by cyclin B1/cdc2” value (cyclin B1/cdc2) was “strongly and specifically inhibited” and the “cyclin A phosphorylation in the same reaction mixture” value (cyclin A/cdk2; internal control for specificity) was “not cyclin A phosphorylation”. The “pRB phosphorylation by cyclin A/cdk2” value (cyclin A/cdk2) was “effectively inhibited”, the “PAP I-GST-cyclin B1 binding” value ([4]; 2, 5, 10 and 20 μM peptide) was “dose-dependent enhancement” and the “association of purified bacterial his-PAP I with GST-cyclin B1” value ([4]; 2, 10 and 20 μM peptide, Western blot with anti-PAP antibody) was “strongly stimulated”. For the same substance, the “input PAP bound to GST-cyclin B1” value ([4]; highest peptide concentration, purified bacterial his-PAP I) was ~100% and the “presence of cdk2 in the eluate of GST-cyclin D1” value [2] was “significantly increased”.
